First the molecules themselves.
T1: VEGF (UniProt P15692-9 27-147)
T1 construct: also called VEGF121
T1 sequence (looked up): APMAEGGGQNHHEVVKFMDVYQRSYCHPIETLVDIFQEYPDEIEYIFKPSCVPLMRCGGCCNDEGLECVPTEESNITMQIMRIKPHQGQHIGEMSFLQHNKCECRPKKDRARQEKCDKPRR

B1: anti-dig/anti-fluos bsAb (dig 2/3-IgG with E357K MHCFcRP x fluos 2/3-IgG with K370E MHCFcRP) (bispecific antibody)
heavy 1: QVQLVESGGGLVKPGGSLRLSCAASGFTFSDYAMSWIRQAPGKGLEWVSSINIGATYIYYADSVKGRFTISRDNAKNSLYLQMNSLRAEDTAVYYCARPGSPYEYDKAYYSMAYWGQGTTVTVSSASTKGPSVFPLAPSSKSTSGGTAALGCLVKDYFPEPVTVSWNSGALTSGVHTFPAVLQSSGLYSLSSVVTVPSSSLGTQTYICNVNHKPSNTKVDKKVEPKSC
light 1: not shown
heavy 2: not shown
light 2: DIVMTQTPLSLSVTPGQPASISCKSSQSLVHSNGNTYLRWYLQKPGQSPKVLIYKVSNRVSGVPDRFSGSGSGTDFTLKISRVEAEDVGVYYCSQSTHVPWTFGQGTKLEIKRTVAAPSVFIFPPSDEQLKSGTASVVCLLNNFYPREAKVQWKVDNALQSGNSQESVTEQDSKDSTYSLSSTLTLSKADYEKHKVYACEVTHQGLSSPVTKSFNRGEC
notes: Product of the 2/3-IgG exchange reaction, assayed as reaction mix; also called dig fluos; not shown: residue limits no
B2: anti-fluos/anti-dig bsAb (fluos 2/3-IgG with E357K MHCFcRP x dig 2/3-IgG with K370E MHCFcRP) (bispecific antibody)
heavy 1: not shown
light 1: B1 light 2
heavy 2: B1 heavy 1
light 2: not shown
notes: Product of the 2/3-IgG exchange reaction, assayed as reaction mix; also called fluos dig; not shown: residue limits no
B3: anti-bio/anti-fluos bsAb (bio 2/3-IgG with E357K MHCFcRP x fluos 2/3-IgG with K370E MHCFcRP) (bispecific antibody)
heavy 1: not shown
light 1: DIQMTQSPSSLSASVGDRVTITCRASGNIHNYLSWYQQKPGKVPKLLIYSAKTLADGVPSRFSGSGSGTDFTLTISSLQPEDVATYYCQHFWSSIYTFGQGTKLEIKRTVAAPSVFIFPPSDEQLKSGTASVVCLLNNFYPREAKVQWKVDNALQSGNSQESVTEQDSKDSTYSLSSTLTLSKADYEKHKVYACEVTHQGLSSPVTKSFNRGEC
heavy 2: not shown
light 2: B1 light 2
notes: Product of the 2/3-IgG exchange reaction, assayed as reaction mix; also called bio fluos
B4: anti-fluos/anti-bio bsAb (fluos 2/3-IgG with E357K MHCFcRP x bio 2/3-IgG with K370E MHCFcRP) (bispecific antibody)
heavy 1: not shown
light 1: B1 light 2
heavy 2: not shown
light 2: B3 light 1
notes: Product of the 2/3-IgG exchange reaction, assayed as reaction mix; also called fluos bio
B5: anti-PDGF/anti-bio bsAb (PDGF 2/3-IgG with E357K MHCFcRP x bio 2/3-IgG with K370E MHCFcRP) (bispecific antibody)
heavy 1: EVQLVESGGGLVQPGGSLRLSCAASGFTFSSYWMSWVRQAPEKGLEWVSTISDGGGLTYYADSVKGRFTISRDNAKNSLYLQMNSLRAEDTAVYYCAESGGYTDWLFGYWGQGTLVTVSSASTKGPSVFPLAPSSKSTSGGTAALGCLVKDYFPEPVTVSWNSGALTSGVHTFPAVLQSSGLYSLSSVVTVPSSSLGTQTYICNVNHKPSNTKVDKKVEPKSC
light 1: not shown
heavy 2: not shown
light 2: B3 light 1
notes: Product of the 2/3-IgG exchange reaction, assayed as reaction mix; also called PDGF bio; not shown: residue limits no
B6: anti-bio/anti-PDGF bsAb (bio 2/3-IgG with E357K MHCFcRP x PDGF 2/3-IgG with K370E MHCFcRP) (bispecific antibody)
heavy 1: not shown
light 1: B3 light 1
heavy 2: B5 heavy 1
light 2: not shown
notes: Product of the 2/3-IgG exchange reaction, assayed as reaction mix; also called bio PDGF; not shown: residue limits no
B7: anti-bio/anti-dig bsAb (bio 2/3-IgG with E357K MHCFcRP x dig 2/3-IgG with K370E MHCFcRP) (bispecific antibody)
heavy 1: not shown
light 1: B3 light 1
heavy 2: B1 heavy 1
light 2: not shown
notes: Product of the 2/3-IgG exchange reaction, assayed as reaction mix; also called bio dig; not shown: residue limits no
B8: anti-dig/anti-bio bsAb (dig 2/3-IgG with E357K MHCFcRP x bio 2/3-IgG with K370E MHCFcRP) (bispecific antibody)
heavy 1: B1 heavy 1
light 1: not shown
heavy 2: not shown
light 2: B3 light 1
notes: Product of the 2/3-IgG exchange reaction, assayed as reaction mix; also called dig bio; not shown: residue limits no

Drawing on patent US20250206821A1 (Hoffmann-La Roche, published 2025), this text covers binding result and relative signal intensity for eight molecules.

One experiment concerns the target T1, VEGF. Nature of the experiment: bridging ELISA, VEGF capture, digoxygenin-Cy5 detection; background signal.
B1: the binding result is given as “no binding (tested: input molecule concentration 1.3 µM)”.
For B2, the binding result is on record as “no binding (tested: input molecule concentration 1.3 µM)”.

Another experiment addresses T1, VEGF. Nature of the experiment: bridging ELISA, VEGF capture, biocytinamid-Cy5 detection; background signal. On the technique in general: ELISA stands for enzyme-linked immunosorbent assay.
On to B3, for which the binding result is listed as “no binding (tested: input molecule concentration 1.3 µM)”.
Still for that read-out and setting: then B4, with “no binding (tested: input molecule concentration 1.3 µM)”.
B5: the binding result is on record as “no binding (tested: input molecule concentration 1.3 µM)”.
Consider B6, for which the binding result was “no binding (tested: input molecule concentration 1.3 µM)”.

The target in another experiment is T1, VEGF. Nature of the experiment: bridging ELISA, VEGF capture, biocytinamid-Cy5 or digoxygenin-Cy5 detection; background signal.
With B7, the binding result is reported as “no binding (tested: input molecule concentration 1.3 µM)”.
On the same count and under the same terms, with B8 the entry was “no binding (tested: input molecule concentration 1.3 µM)”.

In another experiment the target is T1, VEGF. Nature of the experiment: bridging ELISA on exchange reaction mix; VEGF capture, digoxygenin-Cy5 detection; input 1.3 µM; highest value of the assay = 100%.
Take B7: the relative signal intensity was found to be 6.2%.
Still for that read-out and setting: then B8, with 6.2%; and B1, with 6.7%; and B2, with 6.3%.

In the next experiment the target is T1, VEGF. Nature of the experiment: bridging ELISA on exchange reaction mix; VEGF capture, biocytinamid-Cy5 detection; input 1.3 µM; highest value of the assay = 100%.
Turning to B3, the relative signal intensity was 9%.
Turning to B4, the relative signal intensity came to 10.2%.
Still for that read-out and setting: then B5, with 10.5%; and B7, with 9.3%.
The molecule B8 had a relative signal intensity of 9%.
The same measure, in the same setting: then B6, with 10.1%.
